Read-outs that look alike come from different tables or passages of the source.
Tests used:
[1] = biological target: N-type (CaV2.2) Ca2+ channel (α1B with β2a and α2δ) in HEK293 cells (human; rat) (UniProt Q00975); test: cell-based or functional assay
[2] = biological target: I-IIC-YFP (rabbit) (UniProt P15381); test: FRET two-hybrid, relative dissociation constant against the NTB-CFP/I-IIB-YFP pair
[3] = biological target: I-IIB-YFP (human) (UniProt Q00975); test: as above
[4] = biological target: I-IIB-YFP (human) (UniProt Q00975); test: as above; remark: listed apart in the source
[5] = biological target: I-IIC-CFP (rabbit) (UniProt P15381); test: as above
[6] = biological target: I-IIB(357-482)-pGBKT7 (I-II loop of α1B fused to the GAL4 binding domain) (human); test: yeast two-hybrid auto-activation control (empty pGADT7), % of colonies surviving on high stringency plates, mean ± SEM
[7] = biological target: NTB(1-44)-pGBKT7 (human); test: as above
[8] = biological target: I-IIC(436-554)-pGBKT7 (I-II loop of α1C fused to the GAL4 binding domain) (rabbit); test: as above
[9] = biological target: NTB(56-95)-pGBKT7 (human); test: as above
[10] = biological target: I-IIB(357-482)-pGBKT7 (I-II loop of α1B fused to the GAL4 binding domain) (human); test: yeast two-hybrid auto-activation control (empty pGADT7), filter lift β-galactosidase assay, % of colonies turning blue, mean ± SEM
[11] = biological target: NTB(1-44)-pGBKT7 (human); test: as above
[12] = biological target: NTB(56-95)-pGBKT7 (human); test: as above

I-IIB-YFP (human), sequence (Q00975 357-482): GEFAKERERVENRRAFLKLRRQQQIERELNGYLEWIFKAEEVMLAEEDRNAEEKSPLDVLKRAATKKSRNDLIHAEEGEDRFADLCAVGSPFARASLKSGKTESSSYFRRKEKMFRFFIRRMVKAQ
N-type (CaV2.2) Ca2+ channel (α1B with β2a and α2δ) in HEK293 cells (human; rat), sequence (Q00975 whole entry, stated change not applied, chain 1 of 3, other chains not shown): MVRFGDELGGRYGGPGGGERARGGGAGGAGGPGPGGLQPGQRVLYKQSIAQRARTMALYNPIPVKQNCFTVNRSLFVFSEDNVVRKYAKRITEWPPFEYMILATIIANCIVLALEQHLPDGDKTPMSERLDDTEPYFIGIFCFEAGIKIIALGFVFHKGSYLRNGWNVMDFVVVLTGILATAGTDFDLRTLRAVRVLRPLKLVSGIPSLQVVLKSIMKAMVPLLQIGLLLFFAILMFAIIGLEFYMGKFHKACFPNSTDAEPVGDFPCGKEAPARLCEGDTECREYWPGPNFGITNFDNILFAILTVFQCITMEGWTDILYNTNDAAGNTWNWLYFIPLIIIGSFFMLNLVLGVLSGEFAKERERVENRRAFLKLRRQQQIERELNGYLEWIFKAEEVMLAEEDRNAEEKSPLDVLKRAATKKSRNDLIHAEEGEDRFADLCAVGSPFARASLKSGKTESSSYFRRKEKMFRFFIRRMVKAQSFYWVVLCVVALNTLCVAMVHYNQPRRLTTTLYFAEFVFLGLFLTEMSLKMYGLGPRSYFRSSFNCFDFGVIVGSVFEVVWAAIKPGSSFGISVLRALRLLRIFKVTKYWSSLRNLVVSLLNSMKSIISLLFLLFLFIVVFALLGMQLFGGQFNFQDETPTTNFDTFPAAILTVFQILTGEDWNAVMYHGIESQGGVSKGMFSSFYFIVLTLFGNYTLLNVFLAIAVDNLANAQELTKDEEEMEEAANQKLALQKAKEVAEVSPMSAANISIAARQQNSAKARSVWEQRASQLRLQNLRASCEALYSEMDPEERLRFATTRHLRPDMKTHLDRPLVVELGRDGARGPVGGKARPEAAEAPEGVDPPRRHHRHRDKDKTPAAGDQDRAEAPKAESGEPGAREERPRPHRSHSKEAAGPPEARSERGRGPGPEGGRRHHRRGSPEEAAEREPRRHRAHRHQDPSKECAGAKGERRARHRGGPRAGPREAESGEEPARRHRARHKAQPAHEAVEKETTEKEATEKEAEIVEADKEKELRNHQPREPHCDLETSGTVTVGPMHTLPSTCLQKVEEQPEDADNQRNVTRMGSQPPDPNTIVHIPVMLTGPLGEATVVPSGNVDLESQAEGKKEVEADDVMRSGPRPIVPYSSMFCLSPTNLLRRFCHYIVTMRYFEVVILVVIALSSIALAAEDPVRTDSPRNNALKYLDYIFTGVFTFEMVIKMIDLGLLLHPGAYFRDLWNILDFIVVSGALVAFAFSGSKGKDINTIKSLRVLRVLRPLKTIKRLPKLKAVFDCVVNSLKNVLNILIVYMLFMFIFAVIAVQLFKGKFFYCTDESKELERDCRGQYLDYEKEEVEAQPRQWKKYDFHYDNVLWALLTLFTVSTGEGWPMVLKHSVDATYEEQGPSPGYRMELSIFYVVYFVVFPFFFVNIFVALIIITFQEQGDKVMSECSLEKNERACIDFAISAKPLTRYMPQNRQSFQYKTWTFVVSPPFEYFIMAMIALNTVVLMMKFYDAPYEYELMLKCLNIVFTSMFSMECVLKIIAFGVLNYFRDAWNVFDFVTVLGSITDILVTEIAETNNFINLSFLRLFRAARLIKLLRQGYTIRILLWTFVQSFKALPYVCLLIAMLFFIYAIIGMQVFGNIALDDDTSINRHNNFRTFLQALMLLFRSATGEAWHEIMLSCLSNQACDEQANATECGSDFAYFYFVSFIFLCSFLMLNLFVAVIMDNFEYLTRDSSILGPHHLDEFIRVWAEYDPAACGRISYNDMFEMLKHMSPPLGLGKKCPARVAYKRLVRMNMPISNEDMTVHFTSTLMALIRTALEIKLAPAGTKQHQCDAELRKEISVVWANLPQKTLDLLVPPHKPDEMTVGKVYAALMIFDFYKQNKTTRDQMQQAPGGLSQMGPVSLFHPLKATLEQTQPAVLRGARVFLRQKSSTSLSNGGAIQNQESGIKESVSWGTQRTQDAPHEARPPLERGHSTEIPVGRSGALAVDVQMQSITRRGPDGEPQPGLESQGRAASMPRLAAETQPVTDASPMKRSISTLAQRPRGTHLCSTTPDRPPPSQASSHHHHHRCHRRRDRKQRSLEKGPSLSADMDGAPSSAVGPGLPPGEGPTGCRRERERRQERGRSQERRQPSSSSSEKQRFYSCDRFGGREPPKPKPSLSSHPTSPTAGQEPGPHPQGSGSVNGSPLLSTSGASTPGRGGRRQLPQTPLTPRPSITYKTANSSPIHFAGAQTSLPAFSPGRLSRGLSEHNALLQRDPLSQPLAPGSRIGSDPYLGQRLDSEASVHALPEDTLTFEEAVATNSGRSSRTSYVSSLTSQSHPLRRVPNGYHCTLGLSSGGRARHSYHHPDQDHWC
N-type (CaV2.2) Ca2+ channel (α1B with β2a and α2δ) in HEK293 cells (human; rat), sequence (P54290 25-1091, stated change not applied, chain 3 of 3, other chains not shown, further chain): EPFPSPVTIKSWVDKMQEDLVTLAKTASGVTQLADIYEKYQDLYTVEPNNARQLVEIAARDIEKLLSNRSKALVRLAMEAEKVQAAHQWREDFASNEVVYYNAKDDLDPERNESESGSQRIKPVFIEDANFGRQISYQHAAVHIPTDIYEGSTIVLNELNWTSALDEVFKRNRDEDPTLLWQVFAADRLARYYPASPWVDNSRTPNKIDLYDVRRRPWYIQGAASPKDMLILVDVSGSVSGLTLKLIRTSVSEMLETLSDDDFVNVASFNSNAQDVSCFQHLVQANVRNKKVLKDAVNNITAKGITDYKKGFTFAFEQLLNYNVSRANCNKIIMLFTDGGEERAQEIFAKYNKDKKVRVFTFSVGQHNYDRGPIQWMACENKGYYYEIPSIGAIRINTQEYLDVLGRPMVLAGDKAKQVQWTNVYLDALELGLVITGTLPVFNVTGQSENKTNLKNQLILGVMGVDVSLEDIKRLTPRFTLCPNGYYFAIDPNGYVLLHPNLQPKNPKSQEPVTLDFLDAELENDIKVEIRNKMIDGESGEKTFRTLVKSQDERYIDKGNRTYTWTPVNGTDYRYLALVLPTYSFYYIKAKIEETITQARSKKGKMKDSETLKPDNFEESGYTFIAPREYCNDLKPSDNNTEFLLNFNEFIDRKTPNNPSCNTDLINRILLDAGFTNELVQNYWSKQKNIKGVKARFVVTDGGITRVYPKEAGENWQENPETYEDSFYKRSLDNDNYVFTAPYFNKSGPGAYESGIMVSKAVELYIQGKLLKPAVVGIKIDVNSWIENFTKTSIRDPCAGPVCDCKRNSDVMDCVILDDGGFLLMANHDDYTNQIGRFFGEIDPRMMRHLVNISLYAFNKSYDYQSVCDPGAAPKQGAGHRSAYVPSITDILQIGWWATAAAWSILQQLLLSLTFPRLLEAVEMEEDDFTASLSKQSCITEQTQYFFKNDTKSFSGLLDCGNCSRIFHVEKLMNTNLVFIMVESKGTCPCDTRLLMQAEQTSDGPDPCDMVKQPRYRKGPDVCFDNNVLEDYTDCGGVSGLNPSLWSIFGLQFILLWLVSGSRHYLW
I-IIC-CFP (rabbit), sequence (P15381 436-554): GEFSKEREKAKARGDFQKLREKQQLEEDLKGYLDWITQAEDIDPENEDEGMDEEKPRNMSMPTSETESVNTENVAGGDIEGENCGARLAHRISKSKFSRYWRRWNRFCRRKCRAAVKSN
I-IIC-YFP (rabbit), sequence (P15381 436-554): as above

Which results are given for “Gβγ (G protein β1 and γ2 subunits coexpressed) (from UniProt P62871 2-340; P63212 2-68)”?
W(∞), fraction of channels residing in the willing configuration at steady state, 0 mV (compound-state analysis) [1]: 0.6; τ, time-constant with which the steady state is achieved, 0 mV (compound-state analysis) [1]: 60 ms

Which Kd,EFF relative to NTB/I-IIB [2] does the source give for NTB-CFP (from UniProt Q00975 1-95) here?
The Kd,EFF relative to NTB/I-IIB was over 10 fold.

NTC-CFP (from UniProt P15381 1-53) was tested. Which Kd,EFF relative to NTB/I-IIB [3] did it give?
Its Kd,EFF relative to NTB/I-IIB is 8 fold.

And the Kd,EFF relative to NTB/I-IIB [4]?
Its Kd,EFF relative to NTB/I-IIB is over 10 fold.

How did the Kd,EFF relative to NTB/I-IIB [5] turn out when NTC-YFP (from UniProt P15381 1-53) was run?
The Kd,EFF relative to NTB/I-IIB was over 10 fold.

Which results are given for “pGADT7 (empty vector; the isolated GAL4 activating domain itself) (from UniProt P04386 768-881)”?
High Stringency (%) [6]: 18.7%; High Stringency (%) [7]: 0.98%; High Stringency (%) [8]: 8.44%; High Stringency (%) [9]: 2.11%; Filter Lift Assay (%) [10]: 9.18%; Filter Lift Assay (%) [11]: 47.9%; Filter Lift Assay (%) [12]: 32.2%
